The supplement of paper PMC10567573
± gives the standard deviation.

Experiment: protein stability index of a GFP-peptide fusion (GPS, HEK-293T) (PSI 1-6); higher = more stable
[1] = treatment: DMSO, c terminus: a fixed tail appended
[2] = treatment: MLN4924 1 uM, 8 h, c terminus: a fixed tail appended
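Note: 24-mer peptide tiles fused after GFP, lentivirally expressed, FACS-sorted into six equal bins by GFP/DsRed ratio, decoded by Illumina sequencing, PSI is the read-weighted mean bin number.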

Row | Sequence | protein stability index [1] | protein stability index [2] | protein stability index (treatment: DMSO, c terminus: native) | protein stability index (treatment: MLN4924 1 uM, 8 h, c terminus: native)
1 | THLPKADIFALALTVVCAAGAEPL [WEE1] | 3.6 ± 0.35 | 3.31 ± 0.26 |  | 
2 | TIAAIDGLALGGGLELALACDIRV [AUH] | 2.39 ± 1.2 | 2.33 ± 0.59 |  | 
3 | TIMSLASLLFVVMFIPETKGCSLE [SLC2A12] | 3.37 ± 0.21 | 3.33 ± 0.83 |  | 
4 | TKGEEISVYVKLAGEREDLWAGSK [MIA2] | 3.36 ± 0.6 | 3.83 ± 0.19 |  | 
5 | TKSPCESNNKKNDEMQEVPNRVLA [SPANXN3] | 5.22 ± 0.2 | 5.33 ± 0.19 |  | 
6 | TLEELLPPNTRVLRVLPNLPCVVQ [PYCR3] | 2.28 ± 0.28 | 2.1 ± 0.38 |  | 
7 | TLKIRNSNFYTVAVTSLSSQIQYM [TMEM106C] | 2.23 ± 0.37 | 2.13 ± 0.36 |  | 
8 | TLLPWNFFMTATQYFTNRLDMSQN [SLC29A1] | 2.9 ± 0.49 | 2.85 ± 0.37 |  | 
9 | TNALIGGPMPMSMPNVMTGTMGMA [CLINT1] | 3 ± 0.16 | 3.03 ± 0.18 |  | 
10 | TNEKMLKAVFGKHGPISEVLLIKD [RBMY1A1] | 2.82 ± 0.24 | 2.96 ± 0.15 |  | 
11 | TNTLTRIAENGVSERDSEAAKQNH [EHMT1] | 5.41 ± 0.18 | 5.26 ± 0.29 |  | 
12 | TPFLTNHGAHKAEKKLFECLTCGK [ZNF263] | 3.32 ± 0.34 | 3.53 ± 0.67 |  | 
13 | TPLIQQRARDSPEPGAGLGIGDMA [PSD2] | 4.55 ± 0.24 | 4.37 ± 0.12 |  | 
14 | TPRGPDPALLEATGGAAGAGGAGR [KCTD13] | 5.13 ± 0.23 | 5.18 ± 0.21 |  | 
15 | TRGHAISILFGFWTSFICDTYIVL [SMIM2] | 2.73 ± 0.4 | 2.78 ± 0.46 |  | 
16 | TRHLKRLALMIQSSGNTVLLLILC [TMEM192] | 2.55 ± 0.41 | 2.35 ± 0.29 |  | 
17 | TRKHAHHCHKRRTRSCSSASSRSQ [CLK3] | 4.65 ± 0.2 | 4.82 ± 0.19 |  | 
18 | TRPSGNNGNRRRRKLRKTVNGDGS [PHTF1] | 4.83 ± 0.2 | 5.03 ± 0.12 |  | 
19 | TRRRAVGWWKRLFTLKEEKPKMYF [ARL6IP1] | 2.25 ± 0.39 | 2.11 ± 0.32 |  | 
20 | TRVNLSSDTESTDLPSSTPVANSG [DLC1] | 5.05 ± 0.1 | 5.26 ± 0.11 |  | 
21 | TRWLNSGRGDEASEEGQNGSSPKS [ADD1] | 5.4 ± 0.12 | 5.44 ± 0.24 |  | 
22 | TSEQAPSSAPRDVQARMLSSTTIL [PTPRD] | 4.08 ± 0.15 | 4.03 ± 0.38 |  | 
23 | TSGQVVAVKKFVESEDDPVVKKIA [CDKL4] | 4.66 ± 0.06 | 4.82 ± 0.35 |  | 

Row | Sequence | protein stability index [1] | protein stability index [2] | protein stability index (treatment: DMSO, c terminus: native) | protein stability index (treatment: MLN4924 1 uM, 8 h, c terminus: native)
24 | TSLTALSLASASPPLSGRSTPKLT [PPFIA4] | 4.17 ± 0.08 | 4.13 ± 0.12 |  | 
25 | TTKGTSEMSEKRGPTSSNPRKRHR [MLH1] | 5.14 ± 0.41 | 5.04 ± 0.079 |  | 
26 | TTLSFYGNSISISALQSLLQHLIG [PRAME] | 2.82 ± 0.46 | 2.82 ± 0.48 |  | 
27 | TTNPHTSASHRPCVNGDVDKPSEP [SMG5] | 5.15 ± 0.23 | 5.12 ± 0.14 |  | 
28 | TTTLEGSPSVPCIFCEEHFPVAEQ [ZNF277] | 4.17 ± 0.27 | 4.32 ± 0.26 |  | 
29 | TTTVCLVAAALRYLQIFATRRSCI [FAM189A2] | 2.98 ± 0.42 | 2.89 ± 0.25 |  | 
30 | TVAGSLNDFSYLHTNCFELSIYVG [CPXM2] | 2.79 ± 0.78 | 2.55 ± 0.7 |  | 
31 | TVASMMHRQETVDCLKKFNARRKL [CAMK2D] | 3.17 ± 0.15 | 3.73 ± 0.72 |  | 
32 | TVPSAATSQPTPSQHSAHTSSQP [CCDC6] |  |  | 5.42 ± 0.23 | 5.33 ± 0.15
33 | TVYNEMDKNRCELLSFLLLMDYIG [EDNRA] | 2.09 ± 0.34 | 2.17 ± 0.5 |  | 
34 | TYWEHWTSQGQVRMRLFGQRCQKC [RTP4] | 2.33 ± 0.43 | 2.72 ± 0.57 |  | 
35 | VAIFGPPNTYYEGGYFKARLKFPI [CDC34] | 2.24 ± 0.41 | 2.58 ± 0.3 |  | 
36 | VATTARHSAAYRADPLRVSSRDKL [FUNDC2] | 4.1 ± 0.096 | 4.1 ± 0.19 |  | 
37 | VCDLQSLLGYTPEELHAMLDVKPD [ETS1] | 4.04 ± 0.21 | 4.07 ± 0.12 |  | 
38 | VCEEQKCEEEVFPLAMNYLDRFLS [CCND1] | 3.59 ± 0.079 | 3.8 ± 0.18 |  | 
39 | VCSDKRIPGFKFDNSLINQIENLN [LOXL2] | 2.56 ± 0.26 | 3.01 ± 0.25 |  | 
40 | VDSPKNFNIAGTVVKYRRPMDVYE [ADAMTSL2] | 3.44 ± 0.36 | 3.49 ± 0.54 |  | 
41 | VEILDLNDNSPSFATPEREMRISE [PCDHGC5] | 4.08 ± 0.31 | 4.2 ± 0.28 |  | 
42 | VEVISDTLSKPSPMPVSQECFETL [CHGA] | 3.85 ± 0.092 | 3.87 ± 0.25 |  | 
43 | VFDALESDHEMREEEKLKAEEIRI [KCNK9] | 5.27 ± 0.21 | 5.23 ± 0.17 |  | 
44 | VGFIMAGTPMALIVISYIHVAAAV [OR3A1] | 3.27 ± 0.35 | 2.87 ± 0.32 |  | 
45 | VGVATARAPLHSVGYTALVGSDAE [SPSB4] | 4.35 ± 0.19 | 4.38 ± 0.3 |  | 
46 | VHASGWNKILVPLVLLRQMLLELT [BCL2L13] | 2.2 ± 0.3 | 2.3 ± 0.24 |  | 

Row | Sequence | protein stability index [1] | protein stability index [2] | protein stability index (treatment: DMSO, c terminus: native) | protein stability index (treatment: MLN4924 1 uM, 8 h, c terminus: native)
47 | VIATATVYFKRFYARYSLKSIDPV [CCNC] | 2.8 ± 0.74 | 2.8 ± 0.64 |  | 
48 | VIGFAKMIPGFRDLTSEDQIVLLK [VDR] | 2.36 ± 0.51 | 2.42 ± 0.46 |  | 
49 | VINPMLNPIIYSFRNPDVQSAIWR [OR3A1] | 2.06 ± 0.51 | 2.24 ± 0.19 |  | 
50 | VISPMYQLHKPLAEGTPRSNHSAQ [IKZF1] | 3.76 ± 0.32 | 4.06 ± 0.31 |  | 
51 | VITKHNDDEQYAWESSAGGSFTVR [HSP90AB1] | 3.98 ± 0.2 | 4.16 ± 0.21 |  | 
52 | VKSKAKKTVDKHSDEYKIRRERNN [CEBPB] | 4.78 ± 0.39 | 4.79 ± 0.2 |  | 
53 | VMFKEPIEILPNVCYTACATLKGP [BTBD1] | 2.12 ± 0.22 | 2.14 ± 0.26 |  | 
54 | VPEKRDSGMTEVERTYSANCSDFL [SPATS1] | 4.7 ± 0.17 | 4.89 ± 0.14 |  | 
55 | VPGTQVGQGGKLWDPSVQSCKEGL [ZNF263] | 4.12 ± 0.12 | 4.26 ± 0.18 |  | 
56 | VPTPLTNVQILLPVGEPVTNVRLQ [FCHO1] | 3.35 ± 0.34 | 3.36 ± 0.33 |  | 
57 | VPWESDIWDINNQICTVKDIKAEP [ATF6] | 4.02 ± 0.24 | 3.9 ± 0.25 |  | 
58 | VQLHNGTKYKKFPHWLDKWMLTRK [STEAP1] | 2.36 ± 0.044 | 2.19 ± 0.096 |  | 
59 | VQLIQDTRIHILPSMNPDGYEVAA [CPN1] | 2.55 ± 0.23 | 2.57 ± 0.33 |  | 
60 | VQLIWVVSQLYPESIVPIPSSNEE [INTS4] | 3.07 ± 0.45 | 2.81 ± 1.1 |  | 
61 | VQLSQIQGLIGSVEEQLAQLRCEM [KRT17] | 3.04 ± 0.36 | 2.79 ± 0.32 |  | 
62 | VRKSRDKAKRRNQEMQQKLVELSA [CEBPD] | 3.78 ± 0.34 | 3.72 ± 0.43 |  | 
63 | VRKWRVKSALGAMGQWQLEVGDPA [DPCD] | 2.46 ± 0.26 | 2.57 ± 0.21 |  | 
64 | VSASGKEMDWAQMACHRCLVYLGD [SMG5] | 2.1 ± 0.36 | 2.21 ± 0.52 |  | 
65 | VSEDFNKMNFIKTYPAHQNRVSAI [WDFY1] | 2.9 ± 0.21 | 3.03 ± 0.46 |  | 
66 | VSRGPGVNVGTTALWKHLKSMHRE [ZBED2] | 3.22 ± 0.14 | 3.3 ± 0.32 |  | 
67 | VSSEDSFVCQCFEGYILREDGKTC [MATN2] | 3.04 ± 0.26 | 3.08 ± 0.57 |  | 
68 | VTGLNPKTKYILLMDIVPADDHRY [TBX5] | 2.63 ± 0.44 | 1.95 ± 0.53 |  | 
69 | VTLARQAGEVVCEAIKNEMNVMLK [IMPA1] | 2.44 ± 0.4 | 2.44 ± 0.45 |  | 

Row | Sequence | protein stability index [1] | protein stability index [2] | protein stability index (treatment: DMSO, c terminus: native) | protein stability index (treatment: MLN4924 1 uM, 8 h, c terminus: native)
70 | VTNHNIRLFEDVRSWMFRRGPLNS [TRIM43] | 2.56 ± 0.45 | 2.49 ± 0.18 |  | 
71 | VTSQERHCLQQRRKSVPGPGNRTC [ADAMTSL2] | 4.92 ± 0.42 | 4.824 ± 0.006 |  | 
72 | VTVSDASWVSELLWSLFVPFTVYQ [AUP1] | 2.87 ± 0.55 | 3.14 ± 0.47 |  | 
73 | VVFHCEFSSERGPRMCRYVRERDR [CDC25A] | 2.41 ± 0.56 | 2.4 ± 0.3 |  | 
74 | VVHEDFREDILSCYDVYSPDKEEQ [PKD2L1] | 4.7 ± 0.33 | 4.69 ± 0.082 |  | 
75 | VVRGGEVVHRSDEQQHYFNTPFQL [PPTC7] | 3.26 ± 0.47 | 3.43 ± 0.24 |  | 
76 | VVTAEAVAVLKGEQEKEAQHKDQT [MAP2] | 5.49 ± 0.12 | 5.28 ± 0.21 |  | 
77 | VVVCQCGLSIPSHSSELTEQKLRA [RPAIN] | 2.1 ± 0.43 | 2.36 ± 0.38 |  | 
78 | VVYSCVEGKMYTARKGKGAFCNGQ [IMPA1] | 2.33 ± 0.27 | 2.36 ± 0.13 |  | 
79 | VWAHNLIAIARLRGSDLKVLEVTE [FBXO33] | 2.63 ± 0.85 | 2.95 ± 1.1 |  | 
80 | VYPKEFHLNRGNHEDHMVNLRYGF [PPEF2] | 2.69 ± 0.29 | 2.71 ± 0.36 |  | 
81 | WDLVSASVVCRELGFGSAKEAVTG [LOXL2] | 2.58 ± 0.31 | 2.61 ± 0.089 |  | 
82 | WGFVHPRLLSVPELCHHVAEVWVS [RETREG3] | 3.04 ± 0.64 | 2.63 ± 0.57 |  | 
83 | WKESKGKDREYTDIIRKQVLGTKV [CDC34] | 3.66 ± 0.17 | 3.7 ± 0.4 |  | 
84 | WKKLVLVDRNTRPGPQDPEESASR [ELOA2] | 4.28 ± 0.16 | 4.46 ± 0.11 |  | 
85 | WLAVDGLVSPSNNSKEDAFSGTDW [ATF4] | 3.76 ± 0.19 | 3.76 ± 0.27 |  | 
86 | WNMDKYTMIRKLEGHHHDVVACDF [WSB1] | 2.38 ± 0.19 | 2.58 ± 0.33 |  | 
87 | WRMLTYKALNTFIDDLFAFVIKMP [CLPTM1] | 2.95 ± 0.4 | 2.96 ± 0.7 |  | 
88 | WSECSRTCGEGYQFRVVRCWKMLS [ADAMTSL2] | 3.1 ± 1.8 | 2.19 ± 0.34 |  | 
89 | WTQATGLGCALLAAHAVVLCALPV [SOAT2] | 3.18 ± 0.35 | 2.97 ± 0.095 |  | 
